According to the RNAGym collection of RNA variant scans (doi:10.7554/elife.80360):

B1: Hairpin Ribozyme (parent)
chain: GUCCUCUUUCACGUGCGCGUGAAAGAGAGAAGUGAACCAGAGAAACACACGUUGUGGUAUAUUACCUGGUA

Variants of: B1
Test: self-cleavage, relative activity (ratio to wild type); higher = more cleavage; co-transcriptional

Q: For U9C A28U, which self-cleavage is on record?
A: 0.571

Q: Which self-cleavage does the source give for U9C A28G here?
A: 1.33

Q: For U9G A35C, which self-cleavage is on record?
A: 0.637

Q: With U9C A59G as the variant, how does the self-cleavage read?
A: 0.0975

Q: With U9G A24U as the variant, how does the self-cleavage read?
A: 0.483

Q: Which self-cleavage does the source give for U9C U63G here?
A: 0.169

Q: With U9C C66U as the variant, how does the self-cleavage read?
A: 0.513

Q: For U9C C66A, which self-cleavage is on record?
A: 0.248

Q: For U9A U60A, which self-cleavage is on record?
A: 0.483

Q: With U9G U60C as the variant, how does the self-cleavage read?
A: 1.04

Q: With U9G U60A as the variant, how does the self-cleavage read?
A: 0.645

Q: For U9C U62A, which self-cleavage is on record?
A: 0.238

Q: With U9G A61U as the variant, how does the self-cleavage read?
A: 0.211

Q: For U9A G29U, which self-cleavage is on record?
A: 0.144

Q: For U9A G29C, which self-cleavage is on record?
A: 0.154

Q: With U9A G29A as the variant, how does the self-cleavage read?
A: 0.0709

Q: With U9G G32C as the variant, how does the self-cleavage read?
A: 0.0561

Q: With U9C U52A as the variant, how does the self-cleavage read?
A: 0.895

Q: For U9C A44C, which self-cleavage is on record?
A: 0.183

Q: Which self-cleavage does the source give for U9G C38G here?
A: 0.175

Q: Which self-cleavage does the source give for U9C C37A here?
A: 0.355

Q: Which self-cleavage does the source give for U9C A45G here?
A: 0.0278

Q: Which self-cleavage does the source give for U9G A64G here?
A: 0.478

Q: With U9G A64C as the variant, how does the self-cleavage read?
A: 0.164

Q: For U9G U62A, which self-cleavage is on record?
A: 0.0559

Q: Which self-cleavage does the source give for U9C A22U here?
A: 0.799

Q: Which self-cleavage does the source give for U9G A43U here?
A: 0.111

Q: Which self-cleavage does the source give for U9G A43G here?
A: 0.116

Q: For U9C C48A, which self-cleavage is on record?
A: 0.0859

Q: With U9G A26C as the variant, how does the self-cleavage read?
A: 0.418

Q: For U9G A26G, which self-cleavage is on record?
A: 0.386

Q: For U9C U70C, which self-cleavage is on record?
A: 0.492

Q: Which self-cleavage does the source give for U9G A31U here?
A: 0.1

Q: For U9C G13A, which self-cleavage is on record?
A: 0.531

Q: Which self-cleavage does the source give for U9C G13C here?
A: 0.447

Q: With U9C A36U as the variant, how does the self-cleavage read?
A: 0.444

Q: Which self-cleavage does the source give for U9A G25U here?
A: 0.285

Q: With U9A G56A as the variant, how does the self-cleavage read?
A: 0.158

Q: With U9C A35U as the variant, how does the self-cleavage read?
A: 0.708

Q: With U9A G42A as the variant, how does the self-cleavage read?
A: 0.132

Q: Which self-cleavage does the source give for U9A G32U here?
A: 0.135

Q: Which self-cleavage does the source give for U9A G32C here?
A: 0.178

Q: Which self-cleavage does the source give for U9C A47C here?
A: 0.149

Q: For U9C U20G, which self-cleavage is on record?
A: 0.503

Q: With U9A U33G as the variant, how does the self-cleavage read?
A: 0.105

Q: Which self-cleavage does the source give for U9A U33C here?
A: 0.177

Q: For U9A U33A, which self-cleavage is on record?
A: 0.0178

Q: For U9C C16G, which self-cleavage is on record?
A: 0.63

Q: Which self-cleavage does the source give for U9C C16U here?
A: 1.02

Q: Which self-cleavage does the source give for U9G G21U here?
A: 0.674

Q: For U9G G21C, which self-cleavage is on record?
A: 0.736

Q: With U9A G69C as the variant, how does the self-cleavage read?
A: 0.274

Q: With U9A G69U as the variant, how does the self-cleavage read?
A: 0.245

Q: For U9A G69A, which self-cleavage is on record?
A: 0.296

Q: For U9G A45G, which self-cleavage is on record?
A: 0.205

Q: With U9G A45U as the variant, how does the self-cleavage read?
A: 0.0827

Q: Which self-cleavage does the source give for U9A U67A here?
A: 0.147

Q: Which self-cleavage does the source give for U9A U67G here?
A: 0.152

Q: Which self-cleavage does the source give for U9G G13C here?
A: 0.528

Q: Which self-cleavage does the source give for U9C G29A here?
A: 0.118

Q: With U9G U67A as the variant, how does the self-cleavage read?
A: 0.0846

Q: For U9C U58A, which self-cleavage is on record?
A: 0.559

Q: Which self-cleavage does the source give for U9C C46U here?
A: 0.0512

Q: For U9A U20C, which self-cleavage is on record?
A: 0.773

Q: Which self-cleavage does the source give for U9G G69U here?
A: 0.111

Q: For U9G G69A, which self-cleavage is on record?
A: 0.223

Q: Which self-cleavage does the source give for U9G G40U here?
A: 0.086

Q: Which self-cleavage does the source give for U9G G40A here?
A: 0.179

Q: With U9C G51U as the variant, how does the self-cleavage read?
A: 0.463

Q: Which self-cleavage does the source give for U9G A28C here?
A: 0.315

Q: For U9G A28G, which self-cleavage is on record?
A: 1.01

Q: With U9G C65U as the variant, how does the self-cleavage read?
A: 0.122

Q: With U9C U53C as the variant, how does the self-cleavage read?
A: 0.741

Q: With U9C U53G as the variant, how does the self-cleavage read?
A: 1.13

Q: Which self-cleavage does the source give for U9G G25C here?
A: 0.255

Q: For U9G G25U, which self-cleavage is on record?
A: 0.194

Q: With U9C A31U as the variant, how does the self-cleavage read?
A: 0.153

Q: With U9C A31C as the variant, how does the self-cleavage read?
A: 0.184

Q: For U9C A31G, which self-cleavage is on record?
A: 0.592

Q: Which self-cleavage does the source give for U9G A11G here?
A: 0.551

Q: With U9A G40U as the variant, how does the self-cleavage read?
A: 0.119

Q: For U9A G40A, which self-cleavage is on record?
A: 0.262

Q: With U9C G69C as the variant, how does the self-cleavage read?
A: 0.136

Q: With U9C G69A as the variant, how does the self-cleavage read?
A: 0.357

Q: With U9C G56A as the variant, how does the self-cleavage read?
A: 0.171

Q: Which self-cleavage does the source give for U9C G21U here?
A: 0.695

Q: For U9A U52A, which self-cleavage is on record?
A: 0.877

Q: For U9A U52C, which self-cleavage is on record?
A: 0.6

Q: Which self-cleavage does the source give for U9C G40U here?
A: 0.169

Q: For U9C G40C, which self-cleavage is on record?
A: 0.136

Q: Which self-cleavage does the source give for U9C G34A here?
A: 0.812

Q: Which self-cleavage does the source give for U9C G34C here?
A: 1.3

Q: For U9C A30U, which self-cleavage is on record?
A: 0.12

Q: For U9A U62C, which self-cleavage is on record?
A: 0.249

Q: With U9C A41C as the variant, how does the self-cleavage read?
A: 0.837

Q: With U9G as the variant, how does the self-cleavage read?
A: 0.701

Q: Which self-cleavage does the source give for U9C here?
A: 0.819

Q: Which self-cleavage does the source give for U9A G27U here?
A: 0.326

Q: For U9A G27C, which self-cleavage is on record?
A: 0.239

Q: Which self-cleavage does the source give for U9C A49U here?
A: 0.0445

Q: Which self-cleavage does the source give for U9A U63A here?
A: 0.212

Q: With U9A U63G as the variant, how does the self-cleavage read?
A: 0.151

Q: For U9A U63C, which self-cleavage is on record?
A: 0.205

Q: For U9A G34C, which self-cleavage is on record?
A: 1.08

Q: With U9G C18U as the variant, how does the self-cleavage read?
A: 0.793

Q: With U9A G68C as the variant, how does the self-cleavage read?
A: 0.165

Q: With U9A G68U as the variant, how does the self-cleavage read?
A: 0.159

Q: Which self-cleavage does the source give for U9C A61G here?
A: 0.348

Q: Which self-cleavage does the source give for U9G G51U here?
A: 0.814

Q: For U9G G57C, which self-cleavage is on record?
A: 0.232

Q: Which self-cleavage does the source give for U9G C46U here?
A: 0.0772

Q: Which self-cleavage does the source give for U9G C46A here?
A: 0.204

Q: For U9G C46G, which self-cleavage is on record?
A: 0.161

Q: Which self-cleavage does the source give for U9A G54A here?
A: 0.392

Q: For U9G G68U, which self-cleavage is on record?
A: 0.189

Q: Which self-cleavage does the source give for U9C C12G here?
A: 0.502

Q: With U9C C12A as the variant, how does the self-cleavage read?
A: 0.789

Q: For U9C G27U, which self-cleavage is on record?
A: 0.246

Q: With U9C G27A as the variant, how does the self-cleavage read?
A: 0.4

Q: With U9A U58C as the variant, how does the self-cleavage read?
A: 0.72

Q: Which self-cleavage does the source give for U9G A49G here?
A: 0.558

Q: With U9G A22C as the variant, how does the self-cleavage read?
A: 0.677

Q: For U9G A22U, which self-cleavage is on record?
A: 0.564

Q: With U9G G34A as the variant, how does the self-cleavage read?
A: 0.8

Q: For U9G G34C, which self-cleavage is on record?
A: 0.833

Q: With U9C A11C as the variant, how does the self-cleavage read?
A: 0.592

Q: For U9G C37G, which self-cleavage is on record?
A: 0.229

Q: For U9G C37A, which self-cleavage is on record?
A: 0.117

Q: For U9G C50U, which self-cleavage is on record?
A: 0.393

Q: For U9G C50G, which self-cleavage is on record?
A: 0.208

Q: With U9G C50A as the variant, how does the self-cleavage read?
A: 0.24

Q: For U9C G42C, which self-cleavage is on record?
A: 0.264

Q: With U9C G68A as the variant, how does the self-cleavage read?
A: 0.344

Q: Which self-cleavage does the source give for U9C G57A here?
A: 0.167

Q: Which self-cleavage does the source give for U9C A43U here?
A: 0.298

Q: For U9G U52A, which self-cleavage is on record?
A: 0.705

Q: Which self-cleavage does the source give for U9G U52G here?
A: 0.492

Q: For U9G U52C, which self-cleavage is on record?
A: 0.546

Q: Which self-cleavage does the source give for U9C A39U here?
A: 0.411

Q: Which self-cleavage does the source give for U9C A39G here?
A: 0.283

Q: Which self-cleavage does the source give for U9C A39C here?
A: 0.366

Q: For U9C A23U, which self-cleavage is on record?
A: 0.528

Q: For U9C A24G, which self-cleavage is on record?
A: 0.844

Q: With U9C A24C as the variant, how does the self-cleavage read?
A: 0.657

Q: Which self-cleavage does the source give for U9G A41G here?
A: 0.593

Q: For U9C C50A, which self-cleavage is on record?
A: 0.215

Q: With U9G C66G as the variant, how does the self-cleavage read?
A: 0.172

Q: For U9C C38A, which self-cleavage is on record?
A: 0.225

Q: With U9C C38U as the variant, how does the self-cleavage read?
A: 0.338

Q: For U9G U55A, which self-cleavage is on record?
A: 0.179

Q: For U9G U14C, which self-cleavage is on record?
A: 0.831

Q: For U9G G19A, which self-cleavage is on record?
A: 0.548

Q: For U9A G57C, which self-cleavage is on record?
A: 0.185

Q: For U9G G15A, which self-cleavage is on record?
A: 0.646

Q: Which self-cleavage does the source give for U9C U60C here?
A: 0.981

Q: With U9C C18U as the variant, how does the self-cleavage read?
A: 1.02

Q: For U9C C18A, which self-cleavage is on record?
A: 0.84

Q: Which self-cleavage does the source give for U9G U53G here?
A: 0.656

Q: Which self-cleavage does the source give for U9C G15C here?
A: 0.977

Q: With U9C G15A as the variant, how does the self-cleavage read?
A: 0.76

Q: For U9G A30G, which self-cleavage is on record?
A: 0.0174

Q: For U9C U14G, which self-cleavage is on record?
A: 0.754

Q: Which self-cleavage does the source give for U9G C48G here?
A: 0.0994

Q: Which self-cleavage does the source give for U9G C48U here?
A: 0.158

Q: Which self-cleavage does the source give for U9G C48A here?
A: 0.12

Q: For U9G C16U, which self-cleavage is on record?
A: 0.857

Q: For U9G C16A, which self-cleavage is on record?
A: 0.668
